The target of experiment [1] is T1, PYD domain of human ASC (human, UniProt Q9ULZ3 1-91, limits assumed).
T1 construct: biotinylated in BLI; His/MBP-tagged in the alanine ELISA; also called hPYD; human PYD
Put plainly: BLI binning on PYD, competitor 31F10C5-AB1.

The target of experiment [2] is T1, PYD domain of human ASC. Kind of experiment: BLI binning on PYD, competitor 2617C3A8-AB1.
Experiment [3] concerns the target T1, PYD domain of human ASC. Put plainly: BLI binning on PYD, competitor 2626B9D3-AB1.
For experiment [4], the target named is T2, human ASC (apoptosis associated speck-like protein containing a caspase-recruitment domain) (human, UniProt Q9ULZ3 1-195). Put plainly: cell-based or functional assay.
Experiment [5] deals with T2, human ASC (apoptosis associated …). Put plainly: cell-based or functional assay. The source holds these as a separate data set.
Experiment [6] has as its target T3, mouse ASC (mouse, UniProt Q9EPB4 1-193).
T3 sequence: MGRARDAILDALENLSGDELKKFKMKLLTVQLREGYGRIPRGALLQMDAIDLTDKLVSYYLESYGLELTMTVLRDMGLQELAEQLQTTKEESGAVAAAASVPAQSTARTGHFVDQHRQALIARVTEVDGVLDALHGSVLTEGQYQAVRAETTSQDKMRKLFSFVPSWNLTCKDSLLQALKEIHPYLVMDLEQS
Kind of experiment: cell-based or functional assay.

For experiment [7], the target named is T1, PYD domain of human ASC. Kind of experiment: BLI binning on PYD, competitor 23E5F7-AB2.
For experiment [8], the target named is T1, PYD domain of human ASC. Kind of experiment: BLI binning on PYD, competitor 401H9B7-AB1.
The target in experiment [9] is T1, PYD domain of human ASC. Put plainly: ELISA, coated hPYD.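 Also: monoclonal antibody binding to plate-coated human ASC PYD measured by ELISA, with a phosphatase substrate absorbance read-out and EC50 from a variable slope curve fit.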 In general terms: In an ELISA, binding on a coated surface is turned into a signal by an enzyme label.
Experiment [10] concerns the target T2, human ASC (apoptosis associated …). Kind of experiment: SPR affinity mode, mAb captured.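 Also: Single-cycle SPR kinetics with mAbs captured on goat anti-mouse antibody, double-referenced against blank flow cell and buffer cycle, fitted by a 1:1 kinetic model.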
Experiment [11] deals with T3, mouse ASC. Put plainly: SPR affinity mode, mAb captured.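 Also: Single-cycle SPR kinetics with mAbs captured on goat anti-mouse antibody, double-referenced against blank flow cell and buffer cycle, fitted by a 1:1 kinetic model.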
In experiment [12] the target is T3, mouse ASC. Put plainly: ELISA, coated mASC.
The target of experiment [13] is T1, PYD domain of human ASC. Kind of experiment: BLI binning on PYD, competitor 2610H7D3-AB1.
Experiment [14] has as its target T2, human ASC (apoptosis associated …). Kind of experiment: ELISA, coated hASC.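 Also: antibody binding to plate-coated recombinant human ASC, read as phosphatase substrate absorbance, EC50 from four-parameter variable-slope fit.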
Experiment [15] concerns the target T1, PYD domain of human ASC. Kind of experiment: BLI binning on PYD, competitor 22D3A6-AB1.
Experiment [16] concerns the target T1, PYD domain of human ASC. Put plainly: BLI binning on PYD, competitor 416E6G4-AB1.
Experiment [17] has as its target T4, CARD domain of human ASC (human, UniProt Q9ULZ3 107-195).
T4 construct: biotinylated in BLI; also called hCARD; human CARD
T4 sequence: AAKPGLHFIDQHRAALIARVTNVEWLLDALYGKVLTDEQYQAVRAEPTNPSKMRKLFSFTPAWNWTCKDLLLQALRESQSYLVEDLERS
Kind of experiment: sandwich ELISA on MBP-tagged protein captured by anti-MBP antibody, signal as % of hPYD-WT.

The target in experiment [18] is T1, PYD domain of human ASC. Put plainly: BLI binning on PYD, competitor 26A1G2-AB1.
Experiment [19] deals with T3, mouse ASC. Put plainly: cell-based or functional assay. This is another data set of the same source.
The target in experiment [20] is T4, CARD domain of human ASC. Kind of experiment: sandwich ELISA on MBP-tagged protein captured by anti-MBP antibody, signal as % of hPYD-WT. The source holds these as a separate data set.
Experiment [21] addresses T4, CARD domain of human ASC. Put plainly: BLI binning on CARD, competitor 2609F4A9-Ab1.
Experiment [22] addresses T4, CARD domain of human ASC. Kind of experiment: BLI binning on CARD, competitor 2622E12F11-Ab1.
The target in experiment [23] is T3, mouse ASC. Kind of experiment: SPR affinity mode, steady-state fit, apparent KD.
Experiment [24] addresses T4, CARD domain of human ASC. Put plainly: BLI binning on CARD, competitor 2504F3D9-Ab1.
Experiment [25] addresses T4, CARD domain of human ASC. Kind of experiment: BLI binning on CARD, competitor 18F4C12-Ab1.
The target in experiment [26] is T4, CARD domain of human ASC. Put plainly: ELISA, coated hCARD.
For experiment [27], the target named is T4, CARD domain of human ASC. Put plainly: BLI binning on CARD, competitor 2629E8D1-Ab1.
For experiment [28], the target named is T4, CARD domain of human ASC. Kind of experiment: BLI binning on CARD, competitor 32B6C7-Ab1.

Consider four molecules from patent US20250320284A1 (AC IMMUNE, published 2025).

As a reminder, the EC50 is the midpoint of the concentration-response curve. Low values mean higher potency in that assay, high ones lower potency in that assay. By koff is commonly meant a measure of how fast the partners let go of each other. A lower koff goes with slow dissociation. A word on the kon: it is the rate constant with which the complex forms.

Changes are numbered by the printed parent chain. Where two headings read alike, the source gives them in different places.

T1 sequence (Q9ULZ3 1-91 limits assumed): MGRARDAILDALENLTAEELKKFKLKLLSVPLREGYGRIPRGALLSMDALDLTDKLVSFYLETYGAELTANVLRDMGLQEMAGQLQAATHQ

B1: ACI-8016-22D3A6-AB1 (antibody, V domains shown)
VH: QAQLQQSGTELARPGSSVKLSCKASGFTFTIYGINWVKQRTGQGLEWIGEIYPRSGNTYYDEKFKGKATLTADKSTSTAYMELRSLTSEDSAVYFCARSREWEGVFWGQGTLVTVSA
VL: QIVLTQSPAIMSAFPGEKVTITCSATSSVSYMHWFQQKPGTSPKLWIYSTSNLASGVPARFSGSGSGTSHSLTINRMEAEDAATYYCQQRSRYPFTFGSGTKLEIK
notes: also called 936.22D3A6; ACI-8016-22D3A6-AB1_hmG2c
On to B1, for which the normalized binding response in the experiment with PYD domain of human ASC [1] amounted to 1%; with PYD domain of human ASC [2] it was 2%; with PYD domain of human ASC [3] it was 74%; with PYD domain of human ASC [7], 1%; in the experiment with PYD domain of human ASC [8], 73%; with PYD domain of human ASC [13] it was 3%. The normalized binding response with PYD domain of human ASC [15] is 2%; with PYD domain of human ASC [16] it was 2%; with PYD domain of human ASC [18], 0%. For the same molecule, the “IL-1β release, human monocytic cell line, IC50” value (“IL-1β release” for short) in experiment [4] worked out at 41.1 nM. The “Human ASC polymerization assay, IC50” value in experiment [5] was 4.2 nM. In the experiment with mouse ASC [6], the “Mouse ASC polymerization assay, IC50” value turned out to be 30.1 nM. The EC50 with PYD domain of human ASC [9] worked out at 0.2 nM; in the experiment with mouse ASC [12], 0.27 nM; in [14], 0.27 nM. Further, the figures for the Kd (in experiment [10]; with mouse ASC [11]) were 0.38 nM and 1.16 nM, respectively. The values for the koff (in [10]; with mouse ASC [11]) were 0.000264 s⁻¹ and 0.00069 s⁻¹, respectively. For the same molecule, the kon in experiment [10] is 690000 M⁻¹ s⁻¹; with mouse ASC [11] it was 598000 M⁻¹ s⁻¹. The binding result with CARD domain of human ASC [17] is reported as “no binding”. Moreover, the “% IL-1β inhibition, mouse primary microglia, 420 nM mAb” value (from here on “% IL-1β inhibition”) in the experiment with mouse ASC [19] stood at 40%.

B2: ACI-8016-2617C3A8-AB1 (antibody, V domains shown)
VH: QVQLQQSGVELARPGASVKLSCKASGSTFTSYSITWVKQRTGQGLEWIGVIYPRSDNTYYDEKFKGKATLTADKSSSTAYIELRSLTSEDSAVYFCATRDYWGQGTTLTVSS
VL: B1 VL with F14S, T26S, H33Y, L45F, H70Y, N75S, R92N
For B2, the normalized binding response with PYD domain of human ASC [1] came to 2%; with PYD domain of human ASC [2] it was 2%; with PYD domain of human ASC [3] it was 88%; in the experiment with PYD domain of human ASC [7], 1%; with PYD domain of human ASC [8] it was 75%; with PYD domain of human ASC [13], 0%. In addition, the normalized binding response in the experiment with PYD domain of human ASC [15] is 1%; with PYD domain of human ASC [16] it was 4%; in the experiment with PYD domain of human ASC [18], 2%. In addition, in experiment [4], the “IL-1β release” value came to 20.3 nM. The “Human ASC polymerization assay, IC50” value in experiment [5] is 6 nM. In addition, in the experiment with mouse ASC [6], the “Mouse ASC polymerization assay, IC50” value was found to be 35.7 nM. The concentration for a half-maximal effect (EC50) with PYD domain of human ASC [9] was found to be 0.16 nM; with mouse ASC [12], 0.23 nM; in experiment [14], 0.16 nM. Also, the Kd (in [10]; with mouse ASC [11]) was 0.15 nM each time. Further, the koff in experiment [10] turned out to be 0.000118 s⁻¹; with mouse ASC [11], 0.000162 s⁻¹. In addition, the kon came to 810000 M⁻¹ s⁻¹ in [10] and 1.09e+06 M⁻¹ s⁻¹ with mouse ASC [11]. Besides, the binding result with CARD domain of human ASC [20] is “no binding”. For the same molecule, the “% IL-1β inhibition” value with mouse ASC [19] was 94.3%.

B3: ACI-8016-18F4C12-AB1 (antibody, V domains shown)
VH: EVQLQQSGAELVRPGSSVKMTCKTSGYSFSSYGMSWVKQRPGQGLEWIGYIYVGNGYTEYNEKFKGKATLTSDTSSSTVYMDFRSLTSEDSAIYFCARLNRGRALDFWGQGTTLTVSS
VL: DIVLTQSPASLAVSLGQRATISCRASQSVSTSGHSYMHWYQQKPRQSPKLLIHFASNLESGVPARFTGSGSGTDFTLNIHPVEEEDAATYYCQHSWDLPYTFGGGTKLEIK
notes: also called 936.18F4C12
On to B3, for which the normalized binding response in the experiment with CARD domain of human ASC [21] was 68%; with CARD domain of human ASC [22], -3%; with CARD domain of human ASC [24], 33%; with CARD domain of human ASC [25], 0%; with CARD domain of human ASC [27] it was 69%; in the experiment with CARD domain of human ASC [28] it was 78%. In addition, the “IL-1β release” value in [4] was 15.9 nM. The figures for the Kd (in the experiment with mouse ASC [23]; in experiment [10]) were 54.5 nM and 0.7 nM, respectively. In addition, the “Human ASC polymerization assay, IC50” value in experiment [5] worked out at 4.7 nM. Moreover, the binding result with PYD domain of human ASC [9] is “no binding”. This molecule displayed a koff in experiment [10] of 0.000442 s⁻¹. Moreover, the kon in experiment [10] was 621000 M⁻¹ s⁻¹. In addition, the EC50 in the experiment with mouse ASC [12] came to 0.2 nM; in [14] it was 0.19 nM; with CARD domain of human ASC [26], 0.18 nM. Moreover, the “% IL-1β inhibition” value with mouse ASC [19] is 82.8%.

B4: ACI-8016-32B6C7-AB1 (antibody, V domains shown)
VH: QVQLQQSDAELVKPGASVKISCKISGYTFTDQTIHWMNQRPEQGLEWIGYIYPGDGSAMYNEKFRGKATLTADKSSSTAYMQLNSLTSEDSAVYFCARPLYSYASYYWFAYWGQGTLVTVSA
VL: DIQMNQSPSSLSASLGDTITITCHASQNINVWLSWYQRKPGNIPKLLIYKSSNLHTGVPSRFSGSGSGTGFTLTISSLQPEDIATYYCQQGQSYPLTFGGGTKLEIK
notes: also called 936.32B6C7
Turning to B4, the normalized binding response in the experiment with CARD domain of human ASC [21] is -3%; with CARD domain of human ASC [22], 106%; with CARD domain of human ASC [24], -3%; with CARD domain of human ASC [25] it was 97%; in the experiment with CARD domain of human ASC [27], -2%; with CARD domain of human ASC [28], 0%. Also, in experiment [4], the “IL-1β release” value stood at 13.9 nM. Besides, the Kd in the experiment with mouse ASC [23] came to 36.9 nM; in experiment [10], 1.06 nM. The “Human ASC polymerization assay, IC50” value in experiment [5] amounted to 12.1 nM. The binding result with PYD domain of human ASC [9] is reported as “no binding”. The molecule also displayed a koff in [10] of 0.000201 s⁻¹. The molecule also had a kon in [10] of 192000 M⁻¹ s⁻¹. In addition, the EC50 with mouse ASC [12] is 0.14 nM; in [14], 0.14 nM; with CARD domain of human ASC [26], 0.11 nM. Moreover, the “% IL-1β inhibition” value with mouse ASC [19] came out at 66.7%.
